Assay results taken from the nanobody polyreactivity screen of Harvey et al. (2022).

Assay: yeast display, Sf9 membrane polyspecificity reagent, FACS + sequencing; frameworks hold sequencing errors
Outline: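 Nanobodies from a synthetic yeast display library (Saccharomyces cerevisiae BJ5465), induced 36–48 hours with galactose, were stained 1 hour at 4 °C with 10% biotinylated, detergent-solubilized Sf9 membrane reagent, enriched on streptavidin microbeads, then FACS-sorted. Anti-HA (expression) and streptavidin (reagent binding) fluorescence set low and high (top ~1%) gates. Polyreactivity labels come from the gate of origin. Genes were colony-PCR amplified, MiSeq 2 × 250 sequenced and filtered by CDR length.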

| Sequence | polyreactivity (PSR sort gate) |
| --- | --- |
| QVQLVESGGGLVQAGGSLRLSCAASGITFGYNAMGWYRQAPGKDRELVAAITRSAGSTGYADSVKGRFTISRDNAKNTVYLQMNSLKPEDTAVYYCAAVRLSGSHRYGYWGQGTQVTVSS | high polyreactivity |
| QVQLVESGGGLVQAGGSLRLSCAASGITFGYYAMGLYRQAPGKERELVAAISWSGGRTYYADSVKGRLTISRDNAKNTVYLQMNSLKPEDTAVYYCATRYPVRRGSGPSYDYWGQGTQVTVSS | high polyreactivity |
| QVQLVESGGGLVQAGGSLRLSCAASGITFGYYAMGWSRQAAGKEWELVAAISSGGGTYYADSVKGRFTISRDNAKNTVYLQMNSLKPEDTAVYYCNVLRLYPSMDYWGHGTQVTVSS | high polyreactivity |
| QVQLVESGGGLVQAGGSLRLSCAASGITFGYYAMGWYRQAPGKERELVAAISSGGRTYYADSVKGRFTIARDNAKNTVYLQMNSLKPEDTGVYYCAVVARHPSRMDYWGQGTQVTVSS | high polyreactivity |
| QVQLVESGGGLVQAGGSLRLSCAASGITFGYYAMGWYRQAPGKERELVAAITYSGGSTYYADSVKGRFTISRDNAKNTVYLQMNSLKPEDTAVYYCNADWWAYYSFGHEYWGQGTQVTVSS | low polyreactivity |
| QVQLVESGGGLVQAGGSLRLSCAASGITFGYYAMGWYRQAPGKERELVASITSGGSTNYADSVKGRFTISRDNAKNTVYLQMNSLKPEDTAVYYCAKRYYRQYDYWGQGTQVTVSS | low polyreactivity |
| QVQLVESGGGLVQAGGSLRLSCAASGITFGYYAMGWYRQAPGKERELVATITDGGGTKYADSVKGRFTISRDNAKNTVYLQMNSLKPEDTAVYYCAAGLRHVYATEYDYWGQGTQVTVSS | low polyreactivity |
| QVQLVESGGGLVQAGGSLRLSCAASGITFHPYALGWYRQAPGKERELVARIRSTGSTNYADSVKGRFTISRDNAKNTVYLQMNSLKPEDTAVYYCAATFRTGWRPYSFYYWGQGTQVTVSS | high polyreactivity |
| QVQLVESGGGLVQAGGSLRLSCAASGITFHRYAMGWYRQAPGKERELVAGINGRGGSTYYADSVKGRFTISRDNAKNTVYLQMNSLKPEDTAVYYCNAVYAGRYFGFDYWGQGTQVTVSS | high polyreactivity |
| QVQLVESGGGLVQAGGSLRLSCAASGITFHYNAMGWYRQAPGKERELVAAISGSGSNTYYADSVKGRFTISRDNAKNTVYLQMNSLKPEDTAVYYCAKYYYSSNKWMDYWGQGTQVTVSP | high polyreactivity |
| QVQLVESGGGLVQAGGSLRLSCAASGITFIDYAMGGYRQAPGKVRELVAAITVRGSTYYADSVKGRFTISRDNAKNTVYLQMNSLKPEDTAVYYCAADTYVAADSPVTGERDSFDYWGQGTQVTVSS | low polyreactivity |
| QVQLVESGGGLVQAGGSLRLSCAASGITFKRYAMGWYIQAPGKERELVAAISDIGGRTYYADSVKGRFTISRDNAKNTVYLQMNSLKPEDTEVYYCAADYYSPVDWYYYWGQGTQVTVSS | high polyreactivity |
| QVQLVESGGGLVQAGGSLRLSCAASGITFKRYAMGWYRQAPGKERELVAAINGSGGRTYYADSVKGRFTISRDNAKNTVYLQMNSLKPEDTAVYYCNARHIYPSHYDYWGQGTQVTVSS | high polyreactivity |
| QVQLVESGGGLVQAGGSLRLSCAASGITFKRYAMGWYRQAPGKESELVATITWRDGSTYYADSVKGRFTISRDNAKNTVYLQMNSLKPEDTAVYYCAVAAYSRRSPYYHYNYWGQGTQVTVSS | high polyreactivity |
| QVQLVESGGGLVQAGGSLRLSCAASGITFKSNAMGWYRQAPGKERELVAAISRRASSTYYADSVKGRFTISRDNAKNTVYLQRNSLNPEDTAVYYCNAVLPVYRTNMDYWGQGTQVSVSS | high polyreactivity |
| QVQLVESGGGLVQAGGSLRLSCAASGITFLDYAMGWYRQAPGQERELVAAISKRGGSTYYADSVKGRFTISRDKAKNTVYLQMNSLKPEDTAVYYCAAYYHSVRNDYFYYWGQGTQVTVSS | high polyreactivity |
| QVQLVESGGGLVQAGGSLRLSCAASGITFLKYAMGWYRQATGKEREFVAAISRRGGSTYYADSVKGRFTISRDNAKNTVYLQMNSLKPEDTAVYYCAALTVRGTWSQNDYWGQGTQVTVSS | low polyreactivity |
| QVQLVESGGGLVQAGGSLRLSCAASGITFLQYAVGWYRPAPGKERELVAVISRGSRTYYADSVKGRFTISRDNAKNTVYLQMNSLKPEDTAVYYCAAVRGLAVGYDYWGQGTQVTVSS | high polyreactivity |
| QVQLVESGGGLVQAGGSLRLSCAASGITFLVNAMGWYRQAPGKERELVATITSGDSTSYADSVKGRFTISRDNAKNTVYLQMNSLKPEDTAVYFCAARPGYWAQYYPVGSRNYYWGQGTQVTVSS | low polyreactivity |
| QVQLVESGGGLVQAGGSLRLSCAASGITFLVYVMGWYRQAPGKERELVAAISSGGSTYYADSVKGRFTISRDNAKNTVYLQMNSLKPEDTAVYYCSADTVGTNVVSPELDYWGQGTQVTVSS | low polyreactivity |
| QVQLVESGGGLVQAGGSLRLSCAASGITFNAYVMGWYRQAPGKERELVATISQSGGSTYYADSVKGRFTISRDNAKNTVYLQMNSLKPEDTADYYCAARKYGYSYTVTRYYWGQGTQVTVSS | high polyreactivity |
| QVQLVESGGGLVQAGGSLRLSCAASGITFNNNGMGWYRQAPGKERELVASIRSGGRTNYADSVKGRFTISRDNAKNTVYLQMNSLKPEDTAVYYCAAVWYTSRQKYDYWGQGTQVTVSS | low polyreactivity |

| Sequence | polyreactivity (PSR sort gate) |
| --- | --- |
| QVQLVESGGGLVQAGGSLRLSCAASGITFNPYVMGWYRQAPGKERELVAVITSGGSTNYADSVKGRFTISRDNAKITVYLEMNSLKPEDTAVYYCNVDRRPYYVWRVTYDYWGQGTQVTVSS | low polyreactivity |
| QVQLVESGGGLVQAGGSLRLSCAASGITFNQYAMGWYRQAPGKERELVARITKRGGSTYYADSVKGRFTISRDNAKNTVYLQMNSLKPEDTAVYYCAARTYYQEYDYWGQGTQVTVSS | high polyreactivity |
| QVQLVESGGGLVQAGGSLRLSCAASGITFNSYAMGWYRQAPGKERELVAAITLTGGTTYYADSVKGRFTISRDNAKNTVYLQMNSLKPEDTAVYYCAAQYWWWSRFEYDSWGQGTQVTVSS | low polyreactivity |
| QVQLVESGGGLVQAGGSLRLSCAASGITFNYNAMGWYRQAPGKERELVARITWSGTRTYYADSVKGRFTISRDNSKNTVYFQMNSLKPEDTAVYYCNAGPYARYYWGQGTQVTVSS | high polyreactivity |
| QVQLVESGGGLVQAGGSLRLSCAASGITFNYYAMGWYRQAPGKERELVAVISSSGGRTYYADSVKGRFTISRDNAKNTVYLQMNSLKPEDTAVYYCAAGGSVAFYYWGQGTQVTVSS | high polyreactivity |
| QVQLVESGGGLVQAGGSLRLSCAASGITFPGYAMGWYRQAPGKERELVAAISTSGGSTYYADSVKGRFTISRDNAKNTVYLQMIRLKPEDTAVYYCAADSFVTSFHWRFDYWGQGTQVTVSS | low polyreactivity |
| QVQLVESGGGLVQAGGSLRLSCAASGITFPKYAMGWYRQAPGTERELVAAITKSGGSTYYADSVKGRFTISRDNAKNTVYLQMNSLKPEDTEVYYCAVVSRGITKYDYWGQGTQVTVSS | high polyreactivity |
| QVQLVESGGGLVQAGGSLRLSCAASGITFPLYAMGWYRQAPGKERELVASITRGGTTNYADSVKGRFTISRDNAKNTVYLQMNSLKPEDTAVYYCAAVVTRERGYDYWGQGTQVTVSS | low polyreactivity |
| QVQLVESGGGLVQAGGSLRLSCAASGITFPRYAMGWYRQAPGKERELVATITSRGGSTYYADSVKGRFTISRDNAKNTVYLQMNSLKPEDTAVYYCNAQYLLFHGYRYDYWGQCTQVTVSS | high polyreactivity |
| QVQLVESGGGLVQAGGSLRLSCAASGITFPYYAMGWYRQAPGKERELVAAISSSGGSTYYADSVKGRFTISRDNAKNTVYLQMNSLKPEDTAVYYCAAQRYIHYDYWGQGTQVTVSS | high polyreactivity |
| QVQLVESGGGLVQAGGSLRLSCAASGITFPYYDMGWYRQAAGKERELVAAIDWSGATSYYADSVKGRFTISRDNAKNTVYLQMNSLKPEDTAVYHCNADPPLDLWYVTNRIYHLYDYWGQGTQVTVSS | high polyreactivity |
| QVQLVESGGGLVQAGGSLRLSCAASGITFQHYAMGWYRQAPGKERELVAAITWRGSNTYYADSVKGRFTISRDNAKNTVYLQMNSLKPEDTAVYYCAAVLSLRSRNYWGHGTQVTVSS | high polyreactivity |
| QVQLVESGGGLVQAGGSLRLSCAASGITFQIYAMGWYRQAPGKERELVAAISRSGGSSTNYADSVKGRFTISRDNAKNTVYLQMYSLNPEDTAVYYCAAVSPYTGGANDYWGQGTQVTVSS | high polyreactivity |
| QVQLVESGGGLVQAGGSLRLSCAASGITFQNYAMGWYKQAPGKERELVAAITRSGGRTYYADSVKGRFTISRDNAKNTVYLQMNSLKPEDTAVYYCAVYGIGRPYWYDYWGQGTQLTVSS | high polyreactivity |
| QVQLVESGGGLVQAGGSLRLSCAASGITFQRYAMGWYRQAPGKERELVAAISWSGGSTYYADSVKGRFTISRDNAKNTVYLQMNSLKPVDTAVYYCAAELSVSTSHGVDYWGQGTQVTVSS | high polyreactivity |
| QVQLVESGGGLVQAGGSLRLSCAASGITFQSNAMGWYRQAPGKERELVAGISGSGTSTYYADSVKGRFTISRDNAKNTVYLQMNSLKPEDTAVYYCAAAQSKYSFYWGDYYYWGQGTQVTVSS | high polyreactivity |
| QVQLVESGGGLVQAGGSLRLSCAASGITFQYYAMGWYRQAPGKERELVAAISGGGSTNYADSVKGRFTISRDNAKNTVYLQMNSLKPEDTAVYYCAAADLNLELDYWGQGTQVTVSS | high polyreactivity |
| QVQLVESGGGLVQAGGSLRLSCAASGITFRGYAMGWYRQAPGKERELVADITWNGGSTYYADSVKGRFTISRDNAKNTVYLQMNSLKPEDTAVYYCAADGYPIYWSSYRFYYWGQGTQVTVSS | high polyreactivity |
| QVQLVESGGGLVQAGGSLRLSCAASGITFRHYAMGWYRQAPGKERELVAAITSRGGSTYYADSVKGRFTISRDNAKNTVYLQMNSLKPEDTAVYYCAARRRLRAPDDYWGQGTQVTVSS | high polyreactivity |
| QVQLVESGGGLVQAGGSLRLSCAASGITFRLYAMGWSRQAPGKEREFVAAISRRGGSTYYADSVKGRFTISRDNAKNSVYLQMNSLKPEDTAVYYCARYGLVYALGYWGQGTQVTVSS | high polyreactivity |
| QVQLVESGGGLVQAGGSLRLSCAASGITFRQNTMGSYRQAPGKEGELVAAITSSGRTYYADSVKGRFTISRDNAKNTVYLQMNSLKPEDSAVYYCAADTYYFGYGYWGQGTQVTVSS | high polyreactivity |
